Assay in all cases: purified protein
Data set [1] relates to Cc1cn([C@H]2C[C@H](O)[C@@H](COP(=O)(O)O)O2)c(=O)[nH]c1=O. Particulars: 50 mM Tris-HCl pH 9, 5 mM KCl, 135 mM NaCl, 10 mM glucose, 10 mM MgCl2, 0-2 mM substrate.
Data set [2] concerns Nc1ncnc2c1ncn2[C@@H]1O[C@H](COP(=O)(O)O)[C@@H](O)[C@H]1O. The conditions noted are these: 50 mM Tris-HCl pH 9, 5 mM KCl, 135 mM NaCl, 10 mM glucose, 10 mM MgCl2, 0-2 mM substrate.
Data set [3] relates to Nc1nc2c(ncn2[C@@H]2O[C@H](COP(=O)(O)O)[C@@H](O)[C@H]2O)c(=O)[nH]1. The conditions noted are these: 50 mM Tris-HCl pH 9, 5 mM KCl, 135 mM NaCl, 10 mM glucose, 10 mM MgCl2, 0-2 mM substrate.
The subject of data set [4] is O=[N+]([O-])c1ccc(OP(=O)(O)O)cc1. Particulars: 50 mM Tris-HCl pH 9, 5 mM KCl, 135 mM NaCl, 10 mM glucose, 10 mM MgCl2.
Data set [5] concerns Nc1ccn([C@@H]2O[C@H](COP(=O)(O)O)[C@@H](O)[C@H]2O)c(=O)n1. Particulars: 50 mM Tris-HCl pH 9, 5 mM KCl, 135 mM NaCl, 10 mM glucose, 10 mM MgCl2, 0-2 mM substrate.

Km data for one substance are collected here from PMC6077193, “Intravascular Schistosoma mansoni Cleave the Host Immune and Hemostatic Signaling Molecule Sphingosine-1-Phosphate via Tegumental Alkaline Phosphatase” (Frontiers in Immunology, 2018).

Usually Km stands for the concentration of substrate that gives half-maximal velocity. On to “rSmAP (recombinant Schistosoma mansoni alkaline phosphatase) (Schistosoma mansoni)”, for which the Km in data set [1] was 595 µM; in data set [2], 650 µM; in data set [3] it was 640 ± 11 µM; in data set [4], 288 ± 12 µM; in data set [5], 630 ± 20 µM.
